# Results from article PMC314469, “Protein Interaction Networks by Proteome Peptide Scanning” (PLoS Biology, 2004).
# T1: Abp1 SH3 (ABP1_YEAST), P15891
# T1 chain: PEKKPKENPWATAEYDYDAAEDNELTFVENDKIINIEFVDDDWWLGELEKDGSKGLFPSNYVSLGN
# Biological target: T1, Abp1 SH3 (ABP1_YEAST), P15891
# Test: SPOT array
row,Binder,"normalised SPOT signal, Boehringer light units (BLU); mean over the file's lines of this peptide"
1,INQFGIVPLGPKP [YGR154C 339-351],133
2,IPEYILDPNAQKP [YAL058W 299-311],50
3,KDDKAMEPPNEKP [YDL193W 7-19],118
4,KDPKSFPPPPLKP [YBR108W 81-93],1320
5,ISMIPRYPVTSRP [YDL056W 329-341],2470
6,ISSQIAQPYEDRP [YDR280W 60-72],43.3
7,ISPVIIPLGNPKRP [YGR177C 149-162],90.9
8,IRRYLRVPNELKP [YJL004C 4-16],105
9,ILVESSSPLSSKP [YGL248W 276-288],52.3
10,IPPPQTLPNGQKP [YGL222C 52-64],57.2
11,ITELISGYMLPLRP [YJL212C 542-555],149
12,IRPDGRLPHQFRP [YDL111C 21-33],1260
13,ITSYAVSPYAQKP [YJL166W 24-36],90.7
14,KEKKVTFDIEPYKP [YBR143C 103-116],63.6
15,IRGFKSKPGTAKP [YDR409W 265-277],434
16,KARHVLYPKGVKP [YDR463W 278-290],174
17,KDPANISMILPSKP [YBR260C 525-538],112

row,Binder,"normalised SPOT signal, Boehringer light units (BLU); mean over the file's lines of this peptide"
1,INLAVNMPPGQRP [YEL055C 74-86],163
2,ILVSLLIHSLPRKP [YGL104C 354-367],176
3,INAYSNIPPQQRP [YCR033W 972-984],84.6
4,IKPPKHIRNEPVKP [YHR037W 22-35],87.3
5,ILAILQELSLPSRP [YGR002C 424-437],15.7
6,IKEEERLQSQPPRP [YGR268C 17-30],137
7,ISRWVNFPWDAKP [YIL085C 295-307],172
8,IYDVIEVVPEPGKP [YDR301W 1056-1069],80.4
9,IPSGKVDPVTKKP [YJR024C 135-147],21
10,IPILIKMSRSPPRP [YDR243C 233-246],2420
11,IPTRENTPSAFKP [YDL231C 441-453],204
12,KAGGPRAPQGPRP [YJL008C 549-561],209
13,INLANEQPVLEKP [YDR227W 195-207],105
14,KDVQPFIPKSLRP [YGR175C 289-301],2320
15,KSEPELYPNGIKP [YBR058C 403-415],13.7
16,KDIPVKSDDTPAKP [YGL009C 527-540],75.1
17,ISGVYYSNWSPYKP [YDR371W 74-87],91.7

# Further lines, results first:
row,"normalised SPOT signal, Boehringer light units (BLU); mean over the file's lines of this peptide",Binder
1,73,ILKQDLIPSIGKP [YNR027W 300-312]
2,43.2,ITKILRIIGFPSRP [YNL247W 569-582]
3,76.3,ILEEDLNPDAPPKP [YPL057C 39-52]
4,126,IITDTTRPSNNRP [YOR368W 277-289]
5,97.3,ILIGLLKDILPQRP [YNR011C 357-370]
6,118,IYLTKLFMEWPFKP [YMR228W 312-325]
7,71.8,KDSPSFLPGQQRP [YNL167C 92-104]
8,370,IKMASFLPVPEKP [YNL206C 123-135]
9,86.1,ILDKTSPETAPHKP [YOR176W 118-131]
10,38.6,IKPDAVVPERVKP [YPR171W 226-238]
11,822,IQESMKHPKHFRP [YKL146W 503-515]
12,95.3,ISLDSPIPENIKP [YNL102W 567-579]
13,0,ILYKSNDVELPGKP [YMR094W 38-51]
14,79.8,IPSENNIFFIPQKP [YPL147W 673-686]
15,153,IMSPVGNPEGPEKP [YKL060C 311-324]
16,211,KAEMKAGTTAPPKP [YLR234W 517-530]
17,2180,IPLLKEKPNALKP [YOR001W 149-161]
18,114,IKKSVSSPKVSKP [YLR453C 47-59]
19,1030,ISKWTIMPHPNRP [YOL008W 136-148]
20,91.3,ISNLGGKSIDPHKP [YNL212W 461-474]
21,9.5,INPLGITPLGPKP [YKR076W 353-365]
22,87,IVFKNVSFTYPTRP [YLR188W 432-445]
23,155,IPGLGYLENNPGRP [YOL146W 66-79]
24,378,KELKWADPRSFKP [YOR168W 156-168]
25,1350,ILTFSTKKSKPIRP [YMR259C 332-345]
